Results from patent US20120165204A1 (UNIVERSITY OF NORTH CAROLINA AT CHAPEL HILL, published 2012).

Target: T1, 546-4 T17N (LOV2 carries non-covalent FMN; the Rac1 C-terminal CAAX box may be prenylated and trimmed in cells)
T1 construct: only the lane label names it
Assay: pull-down (CoIP) with FLAG-tagged PAK1 co-expressed in HEK 293 cells, FLAG/M2-agarose, in the dark; Western blot
Protocol: The cells were lysed in 50 mM Tris pH 7.5, 150 mM NaCl, and 1% Triton X-100 (lysis buffer) with addition of EDTA-free protease inhibitor cocktail (Roche). After brief centrifugation, the supernatants were incubated with FLAG/M2-agarose (Sigma) followed by washes with lysis buffer, and elution with lysis buffer containing 200 μg/ml 3× FLAG peptide (Sigma). All procedures were done at 4° C. under red light, facilitated using Handee spin columns (Pierce).

- binding result: no binding
B1: FLAG-tagged PAK1 (enzyme, UniProt Q13153 1-545, looked up)
chain: MSNNGLDIQDKPPAPPMRNTSTMIGAGSKDAGTLNHGSKPLPPNPEEKKKKDRFYRSILPGDKTNKKKEKERPEISLPSDFEHTIHVGFDAVTGEFTGMPEQWARLLQTSNITKSEQKKNPQAVLDVLEFYNSKKTSNSQKYMSFTDKSAEDYNSSNALNVKAVSETPAVPPVSEDEDDDDDDATPPPVIAPRPEHTKSVYTRSVIEPLPVTPTRDVATSPISPTENNTTPPDALTRNTEKQKKKPKMSDEEILEKLRSIVSVGDPKKKYTRFEKIGQGASGTVYTAMDVATGQEVAIKQMNLQQQPKKELIINEILVMRENKNPNIVNYLDSYLVGDELWVVMEYLAGGSLTDVVTETCMDEGQIAAVCRECLQALEFLHSNQVIHRDIKSDNILLGMDGSVKLTDFGFCAQITPEQSKRSTMVGTPYWMAPEVVTRKAYGPKVDIWSLGIMAIEMIEGEPPYLNENPLRALYLIATNGTPELQNPEKLSAIFRDFLNRCLEMDVEKRGSAKELLQHQFLKIAKPLSSLTPLIAAAKEATKNNH
notes: Bait of the pull-down assays (FLAG/M2-agarose); not shown: FLAG tag
